Positions of bridges follow the written chain, without caps; N, C: chain ends. No end group written: not given here.
Key:
[1] = biological target: parvovirus B19 capsid proteins VP1-VP2 (Human parvovirus B19, UniProt P07299); experiment: Batch depletion of B19 capsid proteins from solution by immobilized peptide affinity media, supernatant ELISA; format: binding; details: peptide immobilized on formyl 750-M resin; 1 hour at room temperature; compared with blank media; ELISA at 5-minute time point
Description: The two peptide ligands were immobilized on an aldehyde-functional methacrylate resin support (TosoHaas formyl 750-M; Montgomeryville, Pa.). The peptides were first weighed and dissolved into immobilization buffer (100 mM NaOAc, 150 mM NaCi, 0.1% Tween 20, pH 5.0). A sample of the dissolved peptides was taken for concentration analysis. The chromatography media was measured and washed twice with immobilization buffer. The media and peptide were mixed together and tumbled overnight at room temperature. After the reaction, the supernatant was analyzed for residual peptide and the resultant B19 affinity media was washed with deionized water, 1M NaCl, Tris buffer with 1M NaCl, and twice with PBS. The immobilization data are set forth below:
These parvovirus B19 affinity media were evaluated for the ability of the immobilization ligand to recognize and bind to parvovirus B19 capsid proteins VP1-VP2. Each of the prepared media was evaluated for its ability to deplete a solution of parvovirus B19 capsid proteins as compared to a blank control (media only). […] The capsid protein stock solution was prepared by diluting 30 μl of the purified capsid protein solution (Absorbance at 280 nm=2) with 320 μl of stabilizing buffer. […]
Each sample was analyzed with a standard ELISA for the presence or absence of B19 capsid proteins at ten-fold serial dilution into stabilizing buffer. […]

[2] = biological target: VP1-VP2 (Human parvovirus B19, UniProt P07299); experiment: Relative binding ELISA, constant phage against decreasing amounts of VP1-VP2; details: among the 18 selected phage isolates
Description: (§1) Based on the ELISA data and the sequence similarities within each library, the 18 isolates (Tables 1-3) were selected and evaluated further with respect to their binding characteristics to VP1-VP2. Relative binding of each isolate was studied by ELISA. Each selected phage isolate, held at a constant amount, was contacted with decreasing amounts per well of VP1-VP2, the amounts coating each dextrin well varying from 2 μl down to 0.001 μl. Bound phage were detected as described before using polyclonal anti-phage antibody. […] Using VP1-VP2 at 1:10 dilution as an arbitrary point, a value for the signal was interpolated, and the relative binding strengths are reflected in Tables 1-3, above.

[3] = biological target: T1, purified, recombinant parvovirus B19 capsid proteins VP1 and VP2 (VP1-VP2) (human parvovirus B19, UniProt P07299 1-781; P07299 1-554); experiment: phage ELISA; VP1-VP2 coated on dextrin plates, HRP anti-M13 detection
T1 construct: Surrogate target: partially purified/purified recombinant VP1 + VP2 preparation; Made by methods of US 5,498,413 or WO 91/12269
Description: (§2) From convergent screens of phage display libraries, eluted phage were propagated and 376 phage isolates were selected randomly and individually tested for binding to VP1-VP2 by standard ELISA techniques, using a polyclonal anti-phage antibody to detect bound phage. Briefly, VP1-VP2 (2 μl per well) was coated on dextrin plates, blocked with BSA, and individual phage isolates were added to the wells (50 μl, 10⁹ pfu per well). After washing, bound phage were incubated with the detection anti-phage antibodies (100 μl per well HRP-conjugated anti-M13 antibody in PBS-Tween (Pharmacia Inc.)). Wild type phage, displaying no non-phage peptide, were employed as controls. The bound antibody was detected by adding 100 μl per well of two-component TMB (tetramethylbenzidine; Kirkegaard & Perry).

[4] = biological target: T1, purified, recombinant parvovirus B19 …; experiment: phage ELISA, constant phage against decreasing VP1-VP2 coat; normalized signal interpolated at 1:10 dilution of VP1-VP2
Description: as §2, §1

Molecule | depletion / clearing of B19 capsid proteins from solution [1] | ranking of relative binding strength to VP1-VP2 [2] | ELISA signal [3] | relative binding [4]
AEGTGDFCWLWPAHSCHDPGPEGGGS (cysteine pairing not given here) [H03-TN09] | able to effectively bind parvovirus B19 capsid proteins and clear them from solution | – | – | –
AEGTGDFFCSFWHGGCDDDPGPEGGGS (cysteine pairing not given here) [A01-TN8] | able to effectively bind parvovirus B19 capsid proteins and clear them from solution | two highest-ranking isolates | – | –
LFCRFWYNCSA (peptide, not shown: large carriers, disulfide 3-9 (inferred); also: displayed on M13 phage, coat protein fusion and flanking residues not given here, Tested as phage isolate displaying the peptide (TN7 library)) [TN7 isolate H09] | – | – | 0.6 | –
FCWLWPSSDCF (peptide, not shown: large carriers, disulfide 2-10 (inferred); also: displayed on M13 phage, coat protein fusion and flanking residues not given here, Tested as phage isolate displaying the peptide (TN9 library)) [TN9 isolate D01] | – | – | 0.7 | 36
FSCLWFPFCPD (peptide, not shown: large carriers, disulfide 3-9 (inferred); also: displayed on M13 phage, coat protein fusion and flanking residues not given here, Tested as phage isolate displaying the peptide (TN7 library)) [TN7 isolate A12] | – | – | 0.5 | 28
FFCQYWYNCD (peptide, not shown: large carriers, disulfide 3-9 (inferred); also: displayed on M13 phage, coat protein fusion and flanking residues not given here, Tested as phage isolate displaying the peptide (TN7 library); Last template position printed as '-' (10 residues)) [TN7 isolate C11] | – | – | 0.7 | 26
FCWLWPAHSCH (peptide, not shown: large carriers, disulfide 2-10 (inferred); also: displayed on M13 phage, coat protein fusion and flanking residues not given here, Tested as phage isolate displaying the peptide (TN9 library); The synthetic peptide form is a separate molecule; also called TN9 isolate H03) [H03-TN9 phage isolate] | – | – | 0.8 | 85
LFCHFWYNCDF (peptide, not shown: large carriers, disulfide 3-9 (inferred); also: displayed on M13 phage, coat protein fusion and flanking residues not given here, Tested as phage isolate displaying the peptide (TN7 library)) [TN7 isolate B12] | – | – | 0.7 | 29
FFCGFWHDCHP (peptide, not shown: large carriers, disulfide 3-9 (inferred); also: displayed on M13 phage, coat protein fusion and flanking residues not given here, Tested as phage isolate displaying the peptide (TN7 library)) [TN7 isolate A07] | – | – | 0.7 | 27
LCPAHWQFWCD (peptide, not shown: large carriers, disulfide 2-10 (inferred); also: displayed on M13 phage, coat protein fusion and flanking residues not given here, Tested as phage isolate displaying the peptide (TN9 library)) [TN9 isolate F01] | – | – | 0.5 | –
LFCSFWYNCDA (peptide, not shown: large carriers, disulfide 3-9 (inferred); also: displayed on M13 phage, coat protein fusion and flanking residues not given here, Tested as phage isolate displaying the peptide (TN7 library)) [TN7 isolate D11] | – | – | 0.9 | 35
LFCSFWYNCDD (peptide, not shown: large carriers, disulfide 3-9 (inferred); also: displayed on M13 phage, coat protein fusion and flanking residues not given here, Tested as phage isolate displaying the peptide (TN7 library)) [TN7 isolate F12] | – | – | 0.9 | –
AFCHFWFHGCDD (peptide, not shown: large carriers, disulfide 3-10 (inferred); also: displayed on M13 phage, coat protein fusion and flanking residues not given here, Tested as phage isolate displaying the peptide (TN8 library)) [TN8 isolate A05] | – | – | 1.3 | 30
FCRFWYGCHP (peptide, not shown: large carriers, disulfide 2-8 (inferred); also: displayed on M13 phage, coat protein fusion and flanking residues not given here, Tested as phage isolate displaying the peptide (TN7 library); First template position printed as '-' (10 residues)) [TN7 isolate E11] | – | – | 0.6 | 33
FFCSFWHGGCDD (peptide, not shown: large carriers, disulfide 3-10 (inferred); also: displayed on M13 phage, coat protein fusion and flanking residues not given here, Tested as phage isolate displaying the peptide (TN8 library); The synthetic peptide form is a separate molecule; also called TN8 isolate A01) [A01-TN8 phage isolate] | – | – | 1.6 | 52
FFCALWPSCHH (peptide, not shown: large carriers, disulfide 3-9 (inferred); also: displayed on M13 phage, coat protein fusion and flanking residues not given here, Tested as phage isolate displaying the peptide (TN7 library)) [TN7 isolate B11] | – | – | 0.5 | 31
FCHLWWPFQCA (peptide, not shown: large carriers, disulfide 2-10 (inferred); also: displayed on M13 phage, coat protein fusion and flanking residues not given here, Tested as phage isolate displaying the peptide (TN9 library)) [TN9 isolate E03] | – | – | 0.8 | 40
FCQLWWPFQCA (peptide, not shown: large carriers, not fully specified (bridges); printed as Phe-Cys-Gln-Leu-Trp-Trp-Pro-Phe-Gln-Cys-Ala; cysteine pairing not given here, Tested as phage isolate (TN9 library)) [TN9 isolate A06] | – | – | 0.7 | –
HFCHFWFGGCPH (peptide, not shown: large carriers, disulfide 3-10 (inferred); also: displayed on M13 phage, coat protein fusion and flanking residues not given here, Tested as phage isolate displaying the peptide (TN8 library)) [TN8 isolate D06] | – | – | 1.3 | 40

Source: patent US20020031761A1, “Binding moieties for human parvovirus B19” (priority 1998, published 2002)
